# Measured values: the domain aggregation screens of Martell et al. (2025)
# Assay: soluble fraction after stress (log2 fold change); higher = more stays soluble; pooled small domains, quantitative proteomics
# Conditions: stress: 50 degC
# In short: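 The stress applied to every library was 50°C. These custom libraries of small protein domains were pooled and measured at high throughput with quantitative proteomics as the read-out. Aggregation propensity is expressed as the base-two logarithm of the fold change in how much of each protein remains soluble. The higher the value, the more of that protein stays in solution.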
row,Sequence,soluble fraction (log2)
1,HMIYAEDFVGRQGTANTILRPSGRIEIEGEVYDAYTRGEYVEAGERVVVISQEGSTLKVRVV,-0.683
2,HMKIEEIAYSTFISMLDKGEVSKVELKDNLIYIETKADDKTIYTTGRMEDPDLTNRLIEAGVDFTEIE,-0.317
3,HMLTGADAEKATAAAQAEFPGGTVLRVETDADGTYEAHVRKADGTEVEVKMDKDFKVTSVEE,0.0905
4,HMNDNFTPDDLNRLARIKDLPQAKKYALELISNKSAKPMKPEKVRWFANQLQKKKSVMDITKMMYDLLLA,-0.0441
5,HMETIELSAPGGVRLDKLIADGTELSRSAAVKLIEQGNVLVNGSPAGKKDIPAAGAAVEITLPEPQ,-0.134
6,HMEILTRQLTHYLHLLPPAQQEVVRGVYLQDQTLQEIADRVQIPLGTVKSRLRLGLSKLREQIEQEHE,-0.916
7,HMIKKLDIEPIIKSVVDDFNNIYKLKRGITISYLNDGKNKYFINGIENRIEQIIANLLDNSISFSEDNKDV,0.0041
8,HMRRGFGYVRKLPSGRWQASFVGPDLARHSAPHTFETKGDAEGWLGRRQADVVAGEWRPPVP,0.205
9,HMQDKLLRKKEVLEMVSITNSTMYRMIGSGQFPRPIRLDNANINSGVRWKLSEINTFIEQRF,-0.409
10,HMYELREGDVVSVRILSQTGQNSYIASFAGGRFSVTSERAFAPGTVFSASVSLKDGTLVLSPL,-0.568
11,HMINLNEVLANFQKSYPNLAGFKYDQGMDALVYEGNYIRLNGYMLSRINPTLFSMSPDDIFTYLKNGF,-2.53
12,HMEPEWVINTDGSNLNEILAIDEVDSRKTFSNDLQEVYRTFGIEAARQILVQEIDAVIESSGA,0.199
13,HMELSSRQAMIVDIVRKYEPITSEQIADKLNLTRSALRPDLAVLTMIGILEARPRVGYFFTGK,0.141
14,HMQKIENYDQFVQAFKRLSGLDLKLYKENQMKRRINNFINNHGFKENYDQFFQAITGNKELYNAFFKHLTI,-0.172
15,HMSKSKSEIDKDPHFWSSLFQRIGEGESLRKIAKDSKIPKSTLWAWIRNDPQLALRYSEAQQ,0.064
16,HMANGTVKWFNTTKGFGFIAPETGGKDVFVHISAVERSGLTGLADDQKVTFDVEAGRDGRESAVNLAL,0.0396
17,HMKYEFEFPYWSNKEAKHMIVTINYPNGTRATASIQDNDGSNPDYKRIMEEFGEEQIDANTEEGLKRR,-0.0595
18,HMRDKSITFSEFVKLLDEGQIQKVTLTGNEILGTQKSGDKFRTYAPPQYEGLGNKLVERSVEVTAKE,0.207
19,HMTMTIEITVNGKTKTLVAELSLADLLRDLGMTKGRIAVELNGHIVPRSQFSSKTISNLDSIEIVQ,-3.23

row,Sequence,soluble fraction (log2)
1,HMGQVEVPDVVGMTQERAITTLTEAKLVAQIQLTPADVAKGLVAAQSPRAGLKIGEGSFVTIEVSTGPVI,0.0948
2,HMGDTVSGTMLNLKPGVRVVHQIFGPGRVEETTGASLAEFRVTVRFEQKGLKTLLLQYAALQVINSEN,-0.795
3,HMDTNPKVIITMDGVNVRSSASTGSDILFIAEKGEEYELISESGDFYKILYEGNKEGYVASWLVETSE,0.0987
4,HMDVSPVRLIREARGLSQVEVAKAAGLSRAAYQNIEVGKTVPRASTMVNIARALGVSMDDLLAPV,-0.251
5,HMLPDGEAFVKVNTSLNIRTGPWGQIVGWFHNNDKVKIIGRDGDWYKISHNGQTRYIHSRYVSSSR,-0.913
6,HMEPDEYTVRQAFMKFDVGGEGRVPRDKLKALLETLGLELSAQQVRESEEQLDPEGTGFTSYGDFLMWWN,-1.12
7,HMKHAIKEKIRNEYVHGYLNEEGYRVMPTLDELIRKYEVPASSTYRASSKEGWKKQKEAFLEHLRGEIDA,-0.139
8,HMTPGPYETLKPAPLGSYIEPKIGFATAIEIARKEAVQLGIKTEAGGIWYGGDFPFYNVSFFDPDD,-0.615
9,HMGGGTPEERLATLAAIAERQEMLLERLGPNNPLVSLGQYSRTLSRMVQLAGFKDASQYFNELPLDFQMPE,-0.212
10,HMIMPSDATEAKLLGVLGNEPLHVDEIRNQAELPIEKVSAALALMELKGMVRQVGGMNYVAVR,0.117
11,HMDGLIRLNKLLATLGVESRRHAEEMIIAGRITVDGVTATEKGQKVRRGAVIKVDGVEVGPPP,-0.121
12,HMRPHDDHLREQLLGIATETIARTGVEGLSLRTLATDAGTSTSAVYQLFGSRAALLDAVYLRVLE,-1.26
13,HMIDNFFTIRFNYSKINEVIRLLKEFNGEIFNKNYDKNEYIIEFSIPKKDAALLISKLKNITGLTIEQ,-0.00473
14,HMTIYLSENIKRLRLEKELTQETLSEFLGVTSQSVSNWERGESYPDITMLPEIADFFKVSVDELLGVNRAE,-0.889
15,HMTKTEFLNLLEQRLFVLNDNERADLLSEYKQHIEMKIQSGLSEEEAIADFGDPEELIKELLEAY,-0.33
16,HMLPFGHTRLEDGTIQEIPEQIALARKVAEMYKAGFPVMQISIKTEGLLTPRQIYGLMNHWGVKR,-1.24
17,HMRLDSELVSARLHRFMGTNRKPDGEIVEKIAAILEGHPIETLDAFLQSLNGRKIKSYGFFPTVLRREIAN,-0.319
18,HMGYTTSFVVQLKNAVSISFDEIDQNLRKLPGVEDVVIVEEAAMAYLKVDRQHFREEQLAHFEFVRQ,-0.29
19,HMESVQWSVFPSAKYVTIISFDPTTSGGSATAKFKVSDEARSKGFRFRIEAAIGEGIMRSEMYVIEE,0.0612
